Results on five molecules are retold here after patent US20260125469A1 (Hoffmann-La Roche, published 2026).

Substitutions are numbered along the chain they refer to.

By Kd is commonly meant the constant that tells how readily two partners part at equilibrium. Low values mean a tighter complex, high ones a looser complex. As usually defined, the koff is the rate constant with which the complex falls apart. Low readings indicate a long-lived complex, high ones a short-lived complex. The term kon denotes the rate constant with which the complex forms. A lower kon goes with slow association. As usually defined, the EC50 is the concentration needed to bring the measured effect to its halfway point. Low readings indicate greater potency, high ones weaker potency.

Experiment [1] addresses T1, CD19 extracellular domain (ECD)-Fc fusion (human, UniProt P01857 104-328 = IgG part).
T1 construct: Monovalent CD19 ECD on a knob-into-hole Fc; also called CD19 antigen; recombinant human CD19
Description: SPR, TCB captured by anti-PG antibody, CD19 ECD-Fc as analyte, 25°C. The procedure: (§1) SPR experiments were performed, using the CD19-TCB molecules prepared in Example 15, on a Biacore T200 instrument at 25° C. with HBS-EP+ as running buffer (0.01 M HEPES pH 7.4, 0.15 M NaCl, 0.005% Surfactant P20 (GE Healthcare, #BR-1006-69)). Anti-PG antibody (see Example 3) was directly immobilized by amine coupling on a C1 chip (GE Healthcare). The different TCB molecules were captured at 25 nM. Three-fold dilution series (in HBS-EP from 0.14 to 100 nM) of the CD19 antigen (CD19 extracellular domain (ECD)-Fc fusion; see SEQ ID NOs 99 and 100) or the CD3 antigen (see Example 3, SEQ ID NOs 41 and 42) were passed over the ligand at 30 μl/min for 240 s to record the association phase. The dissociation phase was monitored for 1500 s (CD19 antigen) or 800 s (CD3 antigen)s and triggered by switching from the sample solution to HBS-EP+. The chip surface was regenerated after every cycle using two injections of 10 mM glycine pH 2.1 for 60 sec. Bulk refractive index differences were corrected for by subtracting the response obtained on the reference flow cell (without captured TCB). The affinity constants were derived from the kinetic rate constants by fitting to a 1:1 Langmuir binding using the Biaeval software (GE Healthcare). The measurement was performed with three independent dilution series.
(In general: SPR reads the build-up and loss of mass on a sensor chip optically.)

In experiment [2] the target is T2, human CD3 on cells (CD3ε) (human, UniProt P07766 23-207).
T2 construct: CD3 complex as it stands on Jurkat cells or primary T cells; also called CD3-expressing Jurkat cells; CD3-expressing T cells
T2 sequence (P07766 23-207 limits assumed): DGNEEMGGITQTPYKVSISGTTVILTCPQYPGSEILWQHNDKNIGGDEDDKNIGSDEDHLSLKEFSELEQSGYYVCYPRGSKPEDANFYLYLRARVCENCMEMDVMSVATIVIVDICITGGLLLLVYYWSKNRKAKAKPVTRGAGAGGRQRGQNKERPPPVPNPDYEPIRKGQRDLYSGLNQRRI
Description: flow cytometry on Jurkat cells. The protocol:
(§2) The binding of the CD19-TCB molecules prepared in Example 15 to human CD19- and CD3-expressing target cells was tested. Two CD19-expressing cell lines with different levels of CD19 expression were used. Nalm-6, an acute lymphoblastic leukemia (ALL) cell line with high CD 19 expression and Z-138 (Mantle cell lymphoma) with average expression levels. CD3-binding was assessed using immortalized T lymphocyte line (Jurkat cell line). Briefly, cells were harvested, counted, checked for viability and resuspended at 1×10⁶ cells/ml in FACS buffer (PBS+2% FCS+5 mM EDTA+0.25% sodium azide). […] Binding curves and the EC50 values related to binding were calculated using GraphPad Prism 7.

Experiment [3] has as its target T3, human CD19 on cells (Nalm-6, Z-138) (human, UniProt P15391 20-556).
T3 sequence (looked up): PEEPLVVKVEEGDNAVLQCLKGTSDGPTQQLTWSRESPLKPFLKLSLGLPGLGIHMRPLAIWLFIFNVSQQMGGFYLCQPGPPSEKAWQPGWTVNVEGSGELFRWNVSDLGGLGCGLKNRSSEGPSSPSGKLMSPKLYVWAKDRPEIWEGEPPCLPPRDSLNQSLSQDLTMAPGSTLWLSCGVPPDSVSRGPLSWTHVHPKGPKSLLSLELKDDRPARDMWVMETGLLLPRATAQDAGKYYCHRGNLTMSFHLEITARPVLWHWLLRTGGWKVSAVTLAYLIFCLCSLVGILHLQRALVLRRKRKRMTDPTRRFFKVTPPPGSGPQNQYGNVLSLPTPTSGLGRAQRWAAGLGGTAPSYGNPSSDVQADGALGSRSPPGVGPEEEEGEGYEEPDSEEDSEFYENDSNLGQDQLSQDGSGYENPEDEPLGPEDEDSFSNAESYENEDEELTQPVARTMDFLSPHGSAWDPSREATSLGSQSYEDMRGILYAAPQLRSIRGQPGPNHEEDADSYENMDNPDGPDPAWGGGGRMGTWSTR
Kind of experiment: cell-based or functional assay.

The target in experiment [4] is T4, Human CD3ε stalk-Fc(knob)-Avi/CD3δ stalk-Fc(hole) (human).
T4 construct: Heterodimer of CD3 delta and CD3 epsilon ectodomains fused to human Fc with knob-into-hole; also called human CD3ε/δ; CD3 antigen
Description: SPR, TCB captured by anti-PG antibody, human CD3ε/δ-Fc as analyte, 25°C. The protocol: as §1

Experiment [5] has as its target T3, human CD19 on cells (Nalm-6, Z-138). Description: flow cytometry on Nalm-6 cells. The protocol:
as §2
Background: Flow cytometry measures light scatter and fluorescence of single cells or particles in a stream.

Experiment [6] concerns the target T5, Cynomolgus CD3ε stalk-Fc(knob)-Avi/CD3δ stalk-Fc(hole) (cynomolgus).
T5 construct: also called cynomolgus CD3ε/δ
Description: SPR, monovalent IgG captured by anti-PG antibody, antigen as analyte, 25°C; bad fit quality per footnote. The procedure:
(§3) SPR experiments were performed as described in Example 3, with the monovalent IgG molecules prepared in Example 19.
(§4) To analyze the interaction to CD3, IgG molecules were captured for 240 s at 50 nM with a flow rate of 5 μl/min. Human and cynomolgus CD3F stalk-Fc(knob)-Avi/CD36-stalk-Fc(hole) were passed at a concentration of 0.061-250 nM with a flow rate of […] through the flow cells for 300 s. The dissociation was monitored for 800 s.

Experiment [7] concerns the target T4, Human CD3ε stalk-Fc(knob)-Avi/CD3δ …. The description is as above. The procedure:
as §3, §4

Experiment [8] has the same target. Description: SPR on immobilized human CD3ε/δ after stress, relative to sample kept at -80°C pH 6. The procedure:
All SPR experiments were performed on a Biacore T200 instrument (GE Healthcare) at 25° C. with HBS-P+ (10 mM HEPES, 150 mM NaCl pH 7.4, 0.05% Surfactant P20) as running and dilution buffer. Biotinylated human CD3ε/δ (see Example 3, SEQ ID NOs 41 and 42) as well as biotinylated anti-huIgG (Capture Select, Thermo Scientific, #7103262100) were immobilized on a Series S Sensor Chip SA (GE Healthcare, #29104992), resulting in surface densities of at least 1000 resonance units (RU). Anti-CD3 antibodies with a concentration of 2 μg/ml were injected for 30 s at a flow rate of 5 μl/min, and dissociation was monitored for 120 s. The surface was regenerated by injecting 10 mM glycine pH 1.5 for 60 s. Bulk refractive index differences were corrected by subtracting blank injections and by subtracting the response obtained from a blank control flow cell. For evaluation, the binding response 5 seconds after injection end was taken. To normalize the binding signal, the CD3 binding was divided by the anti-huIgG response (the signal (RU) obtained upon capture of the CD3 antibody on the immobilized anti-huIgG antibody). The relative binding activity was calculated by referencing each temperature stressed sample to the corresponding, non-stressed sample.
The experiment was performed as described in Example 4, using the monovalent IgG molecules prepared in Example 19.

B1: CD19-TCB, CD19(018) CD3orig (bispecific antibody, human IgG1, kappa, L234A L235A)
heavy 1: not shown
heavy 2: QVQLVQSGAEVKKPGASVKVSCKASGYTFTDYIMHWVRQAPGQGLEWMGYINPYNDGSKYTEKFQGRVTMTSDTSISTAYMELSRLRSDDTAVYYCARGTYYYGSALFDYWGQGTTVTVSSASTKGPSVFPLAPSSKSTSGGTAALGCLVEDYFPEPVTVSWNSGALTSGVHTFPAVLQSSGLYSLSSVVTVPSSSLGTQTYICNVNHKPSNTKVDEKVEPKSCDKTHTCPPCPAPEAAGGPSVFLFPPKPKDTLMISRTPEVTCVVVDVSHEDPEVKFNWYVDGVEVHNAKTKPREEQYNSTYRVVSVLTVLHQDWLNGKEYKCKVSNKALGAPIEKTISKAKGQPREPQVCTLPPSRDELTKNQVSLSCAVKGFYPSDIAVEWESNGQPENNYKTTPPVLDSDGSFFLVSKLTVDKSRWQQGNVFSCSVMHEALHNHYTQKSLSLSP
light 1: DIVMTQTPLSLSVTPGQPASISCKSSQSLENPNGNTYLNWYLQKPGQSPQLLIYRVSKRFSGVPDRFSGSGSGTDFTLKISRVEAEDVGVYYCLQLTHVPYTFGQGTKLEIKRTVAAPSVFIFPPSDRKLKSGTASVVCLLNNFYPREAKVQWKVDNALQSGNSQESVTEQDSKDSTYSLSSTLTLSKADYEKHKVYACEVTHQGLSSPVTKSFNRGEC
light 2: EVQLLESGGGLVQPGGSLRLSCAASGFTFSTYAMNWVRQAPGKGLEWVSRIRSKYNNYATYYADSVKGRFTISRDDSKNTLYLQMNSLRAEDTAVYYCVRHGNFGNSYVSWFAYWGQGTLVTVSSASVAAPSVFIFPPSDEQLKSGTASVVCLLNNFYPREAKVQWKVDNALQSGNSQESVTEQDSKDSTYSLSSTLTLSKADYEKHKVYACEVTHQGLSSPVTKSFNRGEC
notes: 2+1 IgG CrossFab, inverted; human IgG1 Fc, knob-into-hole, PGLALA
Consider B1, for which, in experiment [1], the Kd turned out to be 0.95 nM, the koff was 0.000316 s⁻¹, the kon was 333000 M⁻¹ s⁻¹ and the t1/2 was 36.6 min. Further, the EC50 in experiment [2] was found to be 115 nM. In addition, in experiment [3], the “EC50 (pM) of tumor cell lysis, Nalm-6 target cells” value (“EC50 (pM) … Nalm-6 target cells” for short) came out at 0.3 pM and the “EC50 (pM) of tumor cell lysis, Z-138 target cells” value (from here on “EC50 (pM) … Z-138 target cells”) came out at 5.4 pM. Further, in experiment [4], the affinity, expressed as Kd, was 3.57 nM; the koff came to 0.00333 s⁻¹; the kon came out at 933000 M⁻¹ s⁻¹; the t1/2 was determined as 3.5 min. The EC50 in experiment [5] amounted to 1.5 nM.

B2: CD19-TCB, CD19(2B11) CD3 variant P035.093 (bispecific antibody, human IgG1, kappa, L234A L235A)
heavy 1: not shown
heavy 2: B1 heavy 2 with S105P, A106Q
light 1: B1 light 1 with N31T, P32S, N33T, N35T, T97L, H98E, V99D
light 2: B1 light 2 with T31S, H101A, G102S, G105P, N106A, W111Y
notes: as for B1
On to B2, for which, in experiment [1], the affinity, expressed as Kd, was 0.32 nM; the koff came out at 0.000146 s⁻¹; the kon was 458000 M⁻¹ s⁻¹; the t1/2 was 79.1 min. Besides, the EC50 in experiment [2] stood at 22.3 nM. In experiment [4], this molecule displayed a Kd of 0.38 nM, a koff of 0.00135 s⁻¹, a kon of 3.56e+06 M⁻¹ s⁻¹ and a t1/2 of 8.6 min. Besides, the EC50 in experiment [5] amounted to 0.6 nM.

B3: CD19-TCB, CD19(018) CD3 variant P035.093 (bispecific antibody, human IgG1, kappa, L234A L235A)
heavy 1: not shown
heavy 2: B1 heavy 2
light 1: B1 light 1
light 2: B1 light 2 with T31S, H101A, G102S, G105P, N106A, W111Y
notes: as for B1
In experiment [1], B3 yielded a Kd of 1.27 nM, a koff of 0.000392 s⁻¹, a kon of 310000 M⁻¹ s⁻¹ and a t1/2 of 29.5 min. In experiment [2], this molecule showed an EC50 of 38 nM. In experiment [3], the “EC50 (pM) … Nalm-6 target cells” value was found to be 0.9 pM and the “EC50 (pM) … Z-138 target cells” value came out at 8.1 pM. In experiment [4], this molecule returned a Kd of 0.37 nM, a koff of 0.00135 s⁻¹, a kon of 3.68e+06 M⁻¹ s⁻¹ and a t1/2 of 8.6 min. For the same molecule, in experiment [5], it took 1.2 nM to reach a half-maximal effect (EC50).

B4: CD19-TCB, CD19(2B11) CD3orig (bispecific antibody, human IgG1, kappa, L234A L235A)
heavy 1: not shown
heavy 2: B1 heavy 2 with S105P, A106Q
light 1: B1 light 1 with N31T, P32S, N33T, N35T, T97L, H98E, V99D
light 2: B1 light 2
notes: as for B1
In experiment [1], B4 gave a Kd of 0.4 nM, a koff of 0.000176 s⁻¹, a kon of 434000 M⁻¹ s⁻¹ and a t1/2 of 65.6 min. The same molecule displayed an EC50 in experiment [2] of 203 nM. In experiment [3], the “EC50 (pM) … Nalm-6 target cells” value is 0.3 pM and the “EC50 (pM) … Z-138 target cells” value worked out at 4.8 pM. In experiment [4], the affinity, expressed as Kd, was 3.36 nM; the koff turned out to be 0.00378 s⁻¹; the kon turned out to be 1.13e+06 M⁻¹ s⁻¹; the t1/2 turned out to be 3.1 min. In addition, the EC50 in experiment [5] was determined as 0.7 nM.

B5: anti-CD3 antibody clone P004.042 in monovalent IgG format (antibody)
heavy: not shown
chain: DKTHTCPPCPAPEAAGGPSVFLFPPKPKDTLMISRTPEVTCVVVDVSHEDPEVKFNWYVDGVEVHNAKTKPREEQYNSTYRVVSVLTVLHQDWLNGKEYKCKVSNKALGAPIEKTISKAKGQPREPQVCTLPPSRDELTKNQVSLSCAVKGFYPSDIAVEWESNGQPENNYKTTPPVLDSDGSFFLVSKLTVDKSRWQQGNVFSCSVMHEALHNHYTQKSLSLSP
light: EVQLLESGGGLVQPGGSLRLSCAASGFQFDNYAMNWVRQAPGKGLEWVSRIRTKYNEYATYYADSVKGRFTISRDDSKNTLYLQMNSLRAEDTAVYYCVRASNFPQSYVSYFGYWGQGTLVTVSSASVAAPSVFIFPPSDEQLKSGTASVVCLLNNFYPREAKVQWKVDNALQSGNSQESVTEQDSKDSTYSLSSTLTLSKADYEKHKVYACEVTHQGLSSPVTKSFNRGEC
notes: also called monovalent IgG P004.042
In experiment [6], B5 yielded a Kd of 0.439 nM, a koff of 0.00809 s⁻¹, a kon of 1.85e+07 M⁻¹ s⁻¹ and a t1/2 of 1.43 min. In experiment [7], the Kd stood at 1.36 nM, the koff worked out at 0.00852 s⁻¹, the kon was 6.28e+06 M⁻¹ s⁻¹ and the t1/2 is 1.36 min. Moreover, in experiment [8], the “binding activity [%] after 2 weeks at pH 6.0/40°C” value is 101% and the “binding activity [%] after 2 weeks at pH 7.4/37°C” value came to 98%.
